Among the data in PMC5758567 are Gα*-induced PDE6 activity (50 nM PDE6, 10 µM disc membranes, 1 µM Gα*) against PrBP/δ concentration; fit with two identical PrBP/δ binding sites on soluble PDE6 values, retold here.

For this assay, the target named is Rod photoreceptor cGMP phosphodiesterase 6 (PDE6) (bovine (endogenous in rod outer segments)) (UniProt P11541).

Sequence of Prenyl-binding protein (PrBP/δ) (Q95142 whole entry, stated change not applied): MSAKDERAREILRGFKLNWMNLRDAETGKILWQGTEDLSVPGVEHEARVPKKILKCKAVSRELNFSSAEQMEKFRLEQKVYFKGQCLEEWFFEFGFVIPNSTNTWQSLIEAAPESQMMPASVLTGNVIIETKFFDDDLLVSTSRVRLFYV

“Prenyl-binding protein (PrBP/δ) (from UniProt Q95142 1-150) (natural protein)”: the Gα*-induced PDE6 activity (50 nM PDE6, 10 µM disc membranes, 1 µM Gα*) against PrBP/δ concentration; fit with two identical PrBP/δ binding sites on soluble PDE6 turned out to be 0.07 µM.
